Test results published in publication PMC2867956, “Interdomain Interactions Control Ca^2+-Dependent Potentiation in the Cation Channel TRPV4” (PLoS ONE, 2010).
Each block holds one substance with its values, some of them ahead of it.

Columns and labels:
[1] = target: C2-Flag (C-terminal TRPV4 fragment C2) (human); assay: AlphaScreen or HTRF; competition: acceptor beads with C2-Flag, donor beads with P2-biotin or C2-biotin, increasing CaM, 100 µM Ca2+ or 1 mM EGTA
[2] = target: N1-YFP (full-length TRPV4 N terminus); assay: FRET or BRET; acceptor photobleaching FRET of CFP- and YFP-fused TRPV4 termini coexpressed in HEK293 cells
Chain of N1-YFP (full-length TRPV4 N terminus) (Q9HBA0 whole entry, the tested form may be a part): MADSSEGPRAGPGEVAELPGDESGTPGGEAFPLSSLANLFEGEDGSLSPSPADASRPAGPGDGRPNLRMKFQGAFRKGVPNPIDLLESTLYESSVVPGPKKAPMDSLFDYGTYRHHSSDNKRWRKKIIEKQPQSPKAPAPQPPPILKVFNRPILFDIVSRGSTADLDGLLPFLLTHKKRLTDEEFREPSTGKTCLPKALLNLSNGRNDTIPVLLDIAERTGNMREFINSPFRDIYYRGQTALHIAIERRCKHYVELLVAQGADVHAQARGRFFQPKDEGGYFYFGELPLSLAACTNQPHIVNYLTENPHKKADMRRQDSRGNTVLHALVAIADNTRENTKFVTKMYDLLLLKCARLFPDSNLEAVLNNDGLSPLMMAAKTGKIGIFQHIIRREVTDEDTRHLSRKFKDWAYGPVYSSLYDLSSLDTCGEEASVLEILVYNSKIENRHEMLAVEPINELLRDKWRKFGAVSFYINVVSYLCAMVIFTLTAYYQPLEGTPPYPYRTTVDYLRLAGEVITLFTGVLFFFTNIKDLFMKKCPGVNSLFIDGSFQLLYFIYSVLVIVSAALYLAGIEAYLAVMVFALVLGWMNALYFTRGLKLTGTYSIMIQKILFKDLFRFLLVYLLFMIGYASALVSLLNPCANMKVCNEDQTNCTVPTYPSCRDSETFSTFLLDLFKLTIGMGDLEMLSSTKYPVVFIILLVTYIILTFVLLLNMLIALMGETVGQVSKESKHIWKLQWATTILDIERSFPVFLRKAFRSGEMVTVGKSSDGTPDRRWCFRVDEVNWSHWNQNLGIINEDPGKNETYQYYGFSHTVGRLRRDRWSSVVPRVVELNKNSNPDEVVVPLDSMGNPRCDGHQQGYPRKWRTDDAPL

[3] = target: C2-GST-biotin (C-terminal TRPV4 fragment C2) (human); assay: AlphaScreen or HTRF; C2-biotin with CaM-Flag or mutants, Ca2+ concentration varied
Chain of C2-GST-biotin (C-terminal TRPV4 fragment C2) (human) (Q9HBA0 whole entry, the tested form may be a part): as above

[4] = target: YFP-fused C1 fragment (full-length TRPV4 C terminus); assay: FRET acceptor photobleaching in HEK293 cells; conditions: coexpressed in HEK293 cells; 3 independent experiments; parent: est. 35; read off a plot

Chain of C2-Flag (C-terminal TRPV4 fragment C2) (human) (Q9HBA0 whole entry, the tested form may be a part): as above
Chain of CFP-fused N1 (full-length TRPV4 N terminus) (domain or fragment) (Q9HBA0 whole entry, the tested form may be a part): as above

Substance: CaM34 (CaM mutant Ca2+ binding-deficient in the C lobe), Flag-tagged (from UniProt P0DP23 1-149) (natural protein)
EC50 of Ca2+ for the interaction [3]: 27 µM

Substance: wild type CaM-Flag (from UniProt P0DP23 1-149) (natural protein)
EC50 of Ca2+ for the interaction [3]: 8.8 µM

Substance: CFP-fused N1 (full-length TRPV4 N terminus) WIA
response [4]: 25%

Substance: CaM12 (CaM mutant Ca2+ binding-deficient in the N lobe), Flag-tagged (from UniProt P0DP23 1-149) (natural protein)
EC50 of Ca2+ for the interaction [3]: 10.7 µM

The remaining lines, values ahead:

IC50 [1]: 0.166 µM
Substance: calmodulin (from UniProt P0DP23 1-149) (natural protein)

maximal relative donor fluorescence increase after acceptor bleaching [2]: 1.27
Substance: CFP-fused N1 (full-length TRPV4 N terminus) (domain or fragment)

response [4]: 17%
Substance: CFP-fused N1 (full-length TRPV4 N terminus) KRA
